One assay deals with IGF1 receptor. The experiment in a line: competition binding assay with 125I-labeled IGF1 on the IGF1 receptor; reference IGF1.
A further assay deals with insulin receptor. Kind of assay: competition binding assay with 125I-labeled insulin on the insulin receptor; reference human insulin.

Ends that are not written are not given here.

As to GSLDESFYDWFERQLGGGSGGSSLEEEWAQIQCEVWGRGCPSY-NH2 (cysteine pairing not given here) [PIRA S661 (…-amide)], the fold lower affinity than IGF1 in the assay with IGF1 receptor was found to be 200000 fold. Also, the affinity relative to human insulin in the assay with insulin receptor amounted to 48%.

The values above are taken from US20090197805A1, “Insulin receptor antagonists and related compositions, uses and methods” (Novo Nordisk A/S, priority 2005, published 2009).
